# What was measured:
# [1] = target: Dipeptidyl peptidase 8 (DPP8), recombinant (human) (UniProt Q6V1X1); assay: cell-based or functional assay
# [2] = target: Dipeptidyl peptidase 9 (DPP9), recombinant wild-type (human) (UniProt Q86TI2); assay: cell-based or functional assay
# [3] = target: Dipeptidyl peptidase 9 (DPP9), recombinant wild-type (human) (UniProt Q86TI2); assay: enzyme kinetics, GP-AMC hydrolysis by 25 nM recombinant DPP9 with 0, 5 or 20 µM peptide
# [4] = target: Dipeptidyl peptidase 8 (DPP8), recombinant (human) (UniProt Q6V1X1); assay: ratio of Ki values, DPP8 against DPP9
# [5] = target: Dipeptidyl peptidase 9 (DPP9), recombinant wild-type (human) (UniProt Q86TI2); assay: ratio of Ki values for DPP9, reference EIL peptide
# [6] = target: Dipeptidyl peptidase 8 (DPP8), recombinant (human) (UniProt Q6V1X1); assay: enzyme kinetics, GP-AMC hydrolysis by recombinant DPP8
# [7] = target: Dipeptidyl peptidase 9 (DPP9), recombinant wild-type (human) (UniProt Q86TI2); assay: enzyme kinetics, GP-AMC hydrolysis by recombinant DPP9
# Dipeptidyl peptidase 8 (DPP8), recombinant (human), sequence (Q6V1X1 whole entry, form in doubt): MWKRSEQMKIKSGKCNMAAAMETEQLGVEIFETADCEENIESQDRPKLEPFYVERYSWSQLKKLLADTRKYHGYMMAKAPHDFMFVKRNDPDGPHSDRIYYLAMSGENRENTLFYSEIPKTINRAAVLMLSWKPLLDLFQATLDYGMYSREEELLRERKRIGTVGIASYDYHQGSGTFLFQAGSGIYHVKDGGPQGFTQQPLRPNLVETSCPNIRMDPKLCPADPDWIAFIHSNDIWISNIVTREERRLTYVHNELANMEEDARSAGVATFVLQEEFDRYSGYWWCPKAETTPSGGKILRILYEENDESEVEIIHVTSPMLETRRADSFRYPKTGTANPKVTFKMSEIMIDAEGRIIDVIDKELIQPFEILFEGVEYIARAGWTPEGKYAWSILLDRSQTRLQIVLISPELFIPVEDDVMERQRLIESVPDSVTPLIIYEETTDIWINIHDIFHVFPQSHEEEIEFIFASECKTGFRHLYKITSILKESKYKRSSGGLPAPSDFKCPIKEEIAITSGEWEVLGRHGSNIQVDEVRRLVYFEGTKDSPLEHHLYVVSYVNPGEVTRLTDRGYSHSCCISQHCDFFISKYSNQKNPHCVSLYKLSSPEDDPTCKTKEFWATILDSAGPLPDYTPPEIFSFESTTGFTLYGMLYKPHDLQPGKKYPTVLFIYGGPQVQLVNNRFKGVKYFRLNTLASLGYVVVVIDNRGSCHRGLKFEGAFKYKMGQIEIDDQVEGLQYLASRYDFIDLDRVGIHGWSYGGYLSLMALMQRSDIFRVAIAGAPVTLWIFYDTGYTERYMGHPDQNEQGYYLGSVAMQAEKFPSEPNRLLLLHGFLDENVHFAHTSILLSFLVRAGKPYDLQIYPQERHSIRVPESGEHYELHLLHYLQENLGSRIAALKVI
# Dipeptidyl peptidase 9 (DPP9), recombinant wild-type (human), sequence (Q86TI2 other isoform, or with tags, fused parts or gaps limits assumed, form in doubt): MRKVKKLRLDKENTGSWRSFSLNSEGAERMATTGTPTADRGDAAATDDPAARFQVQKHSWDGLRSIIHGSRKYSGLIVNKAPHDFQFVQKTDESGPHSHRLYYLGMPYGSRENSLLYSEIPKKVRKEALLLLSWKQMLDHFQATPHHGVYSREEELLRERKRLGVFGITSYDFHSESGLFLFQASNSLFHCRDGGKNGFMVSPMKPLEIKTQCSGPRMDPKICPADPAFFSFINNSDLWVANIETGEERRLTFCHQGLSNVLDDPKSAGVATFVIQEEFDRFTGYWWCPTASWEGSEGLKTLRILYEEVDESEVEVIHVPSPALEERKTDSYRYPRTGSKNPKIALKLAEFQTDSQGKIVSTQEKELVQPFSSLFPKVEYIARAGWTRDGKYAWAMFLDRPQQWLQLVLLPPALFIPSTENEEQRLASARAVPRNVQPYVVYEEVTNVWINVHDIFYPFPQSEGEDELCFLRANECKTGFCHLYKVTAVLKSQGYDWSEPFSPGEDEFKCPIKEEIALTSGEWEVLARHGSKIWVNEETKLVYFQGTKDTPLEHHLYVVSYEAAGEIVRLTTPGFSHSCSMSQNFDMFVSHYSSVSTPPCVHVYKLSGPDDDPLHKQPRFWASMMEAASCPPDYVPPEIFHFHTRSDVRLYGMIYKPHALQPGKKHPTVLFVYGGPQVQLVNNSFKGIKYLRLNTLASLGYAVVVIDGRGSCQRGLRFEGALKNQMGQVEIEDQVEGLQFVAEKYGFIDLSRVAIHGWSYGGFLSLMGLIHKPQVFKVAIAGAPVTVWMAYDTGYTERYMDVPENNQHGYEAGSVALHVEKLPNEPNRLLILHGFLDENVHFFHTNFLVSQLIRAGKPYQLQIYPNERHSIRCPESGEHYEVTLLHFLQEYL
substance,measurement,setting,value
SUMO1 (from UniProt P63165 1-97),AMC release from GP-AMC in the unbound fraction (depleted lysates),[1],40%
same,AMC release from GP-AMC in the unbound fraction (depleted lysates),[2],40%
SLRFLFEG (SEQ ID NO: 37) (peptide),"% DPP9 activity (Mean), 10 µM peptide",[2],24.1%
same,Ki,[3],2000 nM
SLRFLYEG (SEQ ID NO: 38) (peptide),fold lower affinity compared to DPP9,[4],9 fold
same,"% DPP9 activity (Mean), 10 µM peptide",[2],10.9%
same,fold increased efficiency compared to the EIL peptide,[5],18.5 fold
same,Ki,[6],3600 nM
same,Ki,[7],400 nM

# Reference: patent publication US20150266922A1
